Experimental data: paper PMC10495429, “Discovery of L-threonine transaldolases for enhanced biosynthesis of beta-hydroxylated amino acids” (Communications Biology, 2023)

Tests used:
[1] = system: T1, PbTTA; assay: TTA-ADH coupled assay (NADH depletion at […] nm), non-linear regression; assay type: biochemical; details: 1 mM phenylacetaldehyde (non-saturating), PLP, MgCl2, phosphate pH 7.5, 30 °C; read-out: apparent KM
T1 construct: N-terminal hexahistidine-SUMO tag with TEV site kept (screen done with SUMO fusion intact), E. coli BL21

[2] = system: C[C@@H](O)[C@H](N)C(=O)O; assay: purified protein; details: 1 mM phenylacetaldehyde (non-saturating), PLP, MgCl2, phosphate pH 7.5, 30 °C
[3] = substrate: C[C@@H](O)[C@H](N)C(=O)O; assay: purified protein; assay type: biochemical, Pseudomonas fluorescens; details: 1 mM phenylacetaldehyde (non-saturating), PLP, MgCl2, phosphate pH 7.5, 30 °C

## C[C@@H](O)[C@H](N)C(=O)O [L-Thr]
[1]
  Km: 10.9 mM

## PiTTA (Pseudomonas sp. Irchel s3a18)
[2]
  Km: 35.8 (21.0, 41.5) mM
  kcat: 276.4 (260, 294.7) min-1

## s-KaTTA (Kitasatospora aureofaciens)
[2]
  Km: 19.1 mM

B1: ObiH (Pseudomonas fluorescens) (protein)
chain: MSNVKQQTAQIVDWLSSTLGKDHQYREDSLSLTANENYPSALVRLTSGSTAGAFYHCSFPFEVPAGEWHFPEPGHMNAIADQVRDLGKTLIGAQAFDWRPNGGSTAEQALMLAACKPGEGFVHFAHRDGGHFALESLAQKMGIEIFHLPVNPTSLLIDVAKLDEMVRRNPHIRIVILDQSFKLRWQPLAEIRSVLPDSCTLTYDMSHDGGLIMGGVFDSPLSCGADIVHGNTHKTIPGPQKGYIGFKSAQHPLLVDTSLWVCPHLQSNCHAEQLPPMWVAFKEMELFGRDYAAQIVSNAKTLARHLHELGLDVTGESFGFTQTHQVHFAVGDLQKALDLCVNSLHAGGIRSTNIEIPGKPGVHGIRLGVQAMTRRGMKEKDFEVVARFIADLYFKKTEPAKVAQQIKEFLQAFPLAPLAYSFDNYLDEELLAAVYQGAQR
notes: N-terminal hexahistidine tag, expressed in E. coli BL21, codon-optimised gene; tag kept
[3]
  Km: 29.5 mM
